Results as given in patent US20180155451A1 (published 2018).

T1: FcγRIIa R (human, UniProt P12318 34-217)
T1 construct: extracellular domain; also called FcgRIIa R type; 2aR
T1 sequence (looked up): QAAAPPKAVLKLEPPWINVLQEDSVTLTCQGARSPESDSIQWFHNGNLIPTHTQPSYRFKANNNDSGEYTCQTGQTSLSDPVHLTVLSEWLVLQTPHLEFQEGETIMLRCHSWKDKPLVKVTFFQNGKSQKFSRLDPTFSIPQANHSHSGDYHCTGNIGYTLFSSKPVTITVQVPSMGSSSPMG

T2: FcγRIIb (human, UniProt P31994 43-217)
T2 construct: extracellular domain; also called FcgRIIb; 2b
T2 sequence (looked up): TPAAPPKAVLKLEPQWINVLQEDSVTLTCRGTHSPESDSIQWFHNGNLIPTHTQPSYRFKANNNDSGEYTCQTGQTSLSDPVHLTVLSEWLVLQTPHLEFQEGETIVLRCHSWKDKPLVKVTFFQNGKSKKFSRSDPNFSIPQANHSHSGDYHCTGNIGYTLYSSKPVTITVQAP

B1: GpH7-A5/GpH7-B3 variant E269_14T/GpL16-k0 (antibody, human IgG1, kappa)
heavy 1: not shown
heavy 2: not shown
light: DIVMTQSPLSLPVTPGEPASISCQASESLVHSNRNTYLHWYLQKPGQSPQLLIYKVSNRFSGVPDRFSGSGSGTDFTLKISRVEAEDVGVYYCSQNTHVPPTFGQGTKVEIERTVAAPSVFIFPPSDEQLKSGTASVVCLLNNFYPREAKVQWKVDNALQSGNSQESVTEQDSKDSTYSLSSTLTLSKADYEKHKVYACEVTHQGLSSPVTKSFNRGEC
notes: heterodimerized antibody, mutation in the GpH7-B3 chain only; also called He Ab
B2: GpH7-A5/GpH7-B3 variant E269_06M/GpL16-k0 (antibody, human IgG1, kappa)
heavy 1: not shown
heavy 2: not shown
light: B1 light
notes: as for B1
B3: GpH7-A5/GpH7-B3 variant E269_08L/GpL16-k0 (antibody, human IgG1, kappa)
heavy 1: not shown
heavy 2: not shown
light: B1 light
notes: as for B1
B4: GpH7-A5/GpH7-B3 variant D265_11K/GpL16-k0 (antibody, human IgG1, kappa)
heavy 1: not shown
heavy 2: not shown
light: B1 light
notes: as for B1
B5: GpH7-A5/GpH7-B3 variant E269_12R/GpL16-k0 (antibody, human IgG1, kappa)
heavy 1: not shown
heavy 2: not shown
light: B1 light
notes: as for B1
B6: GpH7-B3 variant S337_15Y/GpL16-k0 (antibody, human IgG1, kappa)
heavy: not shown
light: B1 light
notes: also called Ho Ab S337_15Y
B7: GpH7-B3 variant T335_19Q/GpL16-k0 (antibody, human IgG1, kappa)
heavy: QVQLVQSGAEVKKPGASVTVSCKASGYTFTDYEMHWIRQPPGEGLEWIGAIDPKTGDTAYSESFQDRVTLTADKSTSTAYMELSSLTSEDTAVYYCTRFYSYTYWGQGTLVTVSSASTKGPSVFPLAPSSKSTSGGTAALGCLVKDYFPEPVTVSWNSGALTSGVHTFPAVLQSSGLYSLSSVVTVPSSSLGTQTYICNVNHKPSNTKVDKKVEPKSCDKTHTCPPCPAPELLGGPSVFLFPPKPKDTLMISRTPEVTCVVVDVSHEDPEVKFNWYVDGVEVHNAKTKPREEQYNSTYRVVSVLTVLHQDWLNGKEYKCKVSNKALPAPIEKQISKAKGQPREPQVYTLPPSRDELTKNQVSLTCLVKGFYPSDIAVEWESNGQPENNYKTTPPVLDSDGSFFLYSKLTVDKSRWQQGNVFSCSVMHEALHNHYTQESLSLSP
light: B1 light
notes: also called Ho Ab T335_19Q
B8: GpH7-B3 variant T335_10E/GpL16-k0 (antibody, human IgG1, kappa)
heavy: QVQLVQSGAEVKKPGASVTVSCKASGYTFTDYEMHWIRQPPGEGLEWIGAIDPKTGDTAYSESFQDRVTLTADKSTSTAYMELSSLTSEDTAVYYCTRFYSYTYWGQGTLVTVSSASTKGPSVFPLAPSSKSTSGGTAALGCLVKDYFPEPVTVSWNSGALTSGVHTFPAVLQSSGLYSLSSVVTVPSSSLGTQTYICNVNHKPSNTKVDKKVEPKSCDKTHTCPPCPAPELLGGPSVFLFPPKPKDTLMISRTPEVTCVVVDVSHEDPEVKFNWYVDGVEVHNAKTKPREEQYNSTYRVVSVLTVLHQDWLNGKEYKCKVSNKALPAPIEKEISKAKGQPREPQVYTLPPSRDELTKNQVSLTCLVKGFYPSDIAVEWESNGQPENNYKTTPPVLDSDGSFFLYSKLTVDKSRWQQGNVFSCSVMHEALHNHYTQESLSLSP
light: B1 light
notes: also called Ho Ab T335_10E
B9: GpH7-B3 variant T335_07I/GpL16-k0 (antibody, human IgG1, kappa)
heavy: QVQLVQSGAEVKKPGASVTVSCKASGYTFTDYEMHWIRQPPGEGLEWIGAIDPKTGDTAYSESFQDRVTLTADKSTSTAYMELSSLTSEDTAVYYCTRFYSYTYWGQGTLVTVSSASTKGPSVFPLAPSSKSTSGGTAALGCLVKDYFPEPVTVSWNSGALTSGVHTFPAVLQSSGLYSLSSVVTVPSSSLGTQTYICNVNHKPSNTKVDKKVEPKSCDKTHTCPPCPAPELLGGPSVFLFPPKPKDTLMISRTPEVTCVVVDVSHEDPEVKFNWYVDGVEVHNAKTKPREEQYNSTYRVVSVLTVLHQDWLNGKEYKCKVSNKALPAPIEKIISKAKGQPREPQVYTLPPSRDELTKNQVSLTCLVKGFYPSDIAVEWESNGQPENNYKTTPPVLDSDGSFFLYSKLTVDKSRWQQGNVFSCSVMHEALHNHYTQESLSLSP
light: B1 light
notes: also called Ho Ab T335_07I
B10: GpH7-B16/GpL16-k0 (antibody, human IgG1, kappa)
heavy: not shown
light: B1 light
notes: also called Ho Ab L234_10E; GpH7-B3 variant L234_10E/GpL16-k0
B11: GpH7-B17/GpL16-k0 (antibody, human IgG1, kappa)
heavy: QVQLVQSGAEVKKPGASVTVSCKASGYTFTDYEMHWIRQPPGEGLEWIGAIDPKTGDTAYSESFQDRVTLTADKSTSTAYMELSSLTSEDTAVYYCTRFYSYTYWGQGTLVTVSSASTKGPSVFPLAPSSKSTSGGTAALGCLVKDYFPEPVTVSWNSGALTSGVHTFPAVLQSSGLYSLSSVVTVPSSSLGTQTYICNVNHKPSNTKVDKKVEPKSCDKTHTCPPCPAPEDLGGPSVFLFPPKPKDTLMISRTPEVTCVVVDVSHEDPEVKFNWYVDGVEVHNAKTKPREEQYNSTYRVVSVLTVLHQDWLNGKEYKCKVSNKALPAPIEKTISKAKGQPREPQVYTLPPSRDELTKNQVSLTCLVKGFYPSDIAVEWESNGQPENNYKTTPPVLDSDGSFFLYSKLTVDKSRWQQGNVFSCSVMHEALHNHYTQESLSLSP
light: B1 light
notes: also called Ho Ab L234_09D; GpH7-B3 variant L234_09D/GpL16-k0
B12: GpH7-B3-03-20W/GpL16-k0 (antibody, human IgG1, kappa)
heavy: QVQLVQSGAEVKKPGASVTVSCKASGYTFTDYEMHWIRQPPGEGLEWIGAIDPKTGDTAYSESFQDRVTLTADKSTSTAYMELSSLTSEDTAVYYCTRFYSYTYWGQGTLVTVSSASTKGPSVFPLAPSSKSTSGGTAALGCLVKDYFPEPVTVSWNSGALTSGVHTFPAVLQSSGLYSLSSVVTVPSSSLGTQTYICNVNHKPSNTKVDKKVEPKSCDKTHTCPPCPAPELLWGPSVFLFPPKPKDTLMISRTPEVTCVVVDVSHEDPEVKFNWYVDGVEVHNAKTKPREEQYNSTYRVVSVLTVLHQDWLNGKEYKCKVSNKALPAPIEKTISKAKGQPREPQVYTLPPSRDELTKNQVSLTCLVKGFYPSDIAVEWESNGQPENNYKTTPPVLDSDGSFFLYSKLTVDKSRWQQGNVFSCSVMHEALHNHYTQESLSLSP
light: B1 light
notes: also called Ho Ab G236_20W; GpH7-B3 variant G236_20W/GpL16-k0
B13: GpH7-B3 variant T335_20W/GpL16-k0 (antibody, human IgG1, kappa)
heavy: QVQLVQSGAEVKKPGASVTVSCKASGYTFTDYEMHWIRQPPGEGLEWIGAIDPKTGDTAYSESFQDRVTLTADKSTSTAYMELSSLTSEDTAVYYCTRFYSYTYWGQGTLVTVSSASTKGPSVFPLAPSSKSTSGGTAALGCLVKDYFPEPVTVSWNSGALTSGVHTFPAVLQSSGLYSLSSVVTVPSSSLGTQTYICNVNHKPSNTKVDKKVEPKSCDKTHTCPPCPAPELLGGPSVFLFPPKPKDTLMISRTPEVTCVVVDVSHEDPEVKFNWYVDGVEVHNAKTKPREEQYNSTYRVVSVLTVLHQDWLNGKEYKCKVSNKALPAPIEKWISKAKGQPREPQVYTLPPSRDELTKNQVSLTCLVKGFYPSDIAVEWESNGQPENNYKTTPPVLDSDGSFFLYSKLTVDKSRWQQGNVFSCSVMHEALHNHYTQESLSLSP
light: B1 light
notes: also called Ho Ab T335_20W
B14: GpH7-B3 variant S337_20W/GpL16-k0 (antibody, human IgG1, kappa)
heavy: not shown
light: B1 light
notes: also called Ho Ab S337_20W
B15: GpH7-B3 variant T335_13S/GpL16-k0 (antibody, human IgG1, kappa)
heavy: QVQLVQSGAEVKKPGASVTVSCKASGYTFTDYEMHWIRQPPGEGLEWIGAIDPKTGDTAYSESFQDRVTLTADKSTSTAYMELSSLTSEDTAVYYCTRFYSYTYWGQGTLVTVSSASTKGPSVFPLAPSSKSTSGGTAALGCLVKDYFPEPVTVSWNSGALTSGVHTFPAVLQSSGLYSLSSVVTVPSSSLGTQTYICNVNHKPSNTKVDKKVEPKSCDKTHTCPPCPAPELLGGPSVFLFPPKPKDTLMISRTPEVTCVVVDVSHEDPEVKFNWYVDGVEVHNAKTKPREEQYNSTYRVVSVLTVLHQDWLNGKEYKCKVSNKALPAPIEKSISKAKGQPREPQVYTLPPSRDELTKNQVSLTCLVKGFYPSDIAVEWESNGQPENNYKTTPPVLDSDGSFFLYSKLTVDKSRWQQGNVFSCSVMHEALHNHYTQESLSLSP
light: B1 light
notes: also called Ho Ab T335_13S
B16: GpH7-B3-01-15Y/GpL16-k0 (antibody, human IgG1, kappa)
heavy: not shown
light: B1 light
notes: also called Ho Ab L234_15Y; GpH7-B3 variant L234_15Y/GpL16-k0
B17: GpH7-B3 variant S337_18N/GpL16-k0 (antibody, human IgG1, kappa)
heavy: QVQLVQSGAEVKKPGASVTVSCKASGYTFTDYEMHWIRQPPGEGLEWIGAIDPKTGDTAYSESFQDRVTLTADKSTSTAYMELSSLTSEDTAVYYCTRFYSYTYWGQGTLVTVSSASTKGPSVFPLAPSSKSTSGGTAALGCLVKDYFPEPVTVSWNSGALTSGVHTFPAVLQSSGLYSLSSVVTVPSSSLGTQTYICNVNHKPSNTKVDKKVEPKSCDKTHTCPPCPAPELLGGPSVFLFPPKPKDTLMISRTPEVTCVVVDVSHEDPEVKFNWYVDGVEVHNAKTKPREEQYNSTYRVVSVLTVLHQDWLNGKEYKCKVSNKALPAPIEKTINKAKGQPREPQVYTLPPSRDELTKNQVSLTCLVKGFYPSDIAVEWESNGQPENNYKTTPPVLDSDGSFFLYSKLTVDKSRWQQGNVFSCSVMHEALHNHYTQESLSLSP
light: B1 light
notes: also called Ho Ab S337_18N
B18: GpH7-B3 variant V266_08L/GpL16-k0 (antibody, human IgG1, kappa)
heavy: not shown
light: B1 light
notes: also called Ho Ab V266_08L
B19: GpH7-B3 variant T335_15Y/GpL16-k0 (antibody, human IgG1, kappa)
heavy: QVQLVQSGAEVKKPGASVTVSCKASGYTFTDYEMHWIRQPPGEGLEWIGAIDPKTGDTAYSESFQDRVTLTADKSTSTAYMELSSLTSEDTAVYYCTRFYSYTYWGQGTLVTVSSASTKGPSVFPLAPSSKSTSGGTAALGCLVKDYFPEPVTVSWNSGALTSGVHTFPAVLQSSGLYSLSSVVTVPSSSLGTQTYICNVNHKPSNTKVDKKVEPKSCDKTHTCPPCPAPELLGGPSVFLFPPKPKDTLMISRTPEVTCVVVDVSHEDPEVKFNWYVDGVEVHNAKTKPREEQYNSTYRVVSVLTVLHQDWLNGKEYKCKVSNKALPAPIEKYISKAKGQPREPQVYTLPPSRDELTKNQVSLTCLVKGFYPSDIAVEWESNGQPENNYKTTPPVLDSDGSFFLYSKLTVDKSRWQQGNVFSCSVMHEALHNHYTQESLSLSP
light: B1 light
notes: also called Ho Ab T335_15Y
B20: GpH7-B3 variant T335_16H/GpL16-k0 (antibody, human IgG1, kappa)
heavy: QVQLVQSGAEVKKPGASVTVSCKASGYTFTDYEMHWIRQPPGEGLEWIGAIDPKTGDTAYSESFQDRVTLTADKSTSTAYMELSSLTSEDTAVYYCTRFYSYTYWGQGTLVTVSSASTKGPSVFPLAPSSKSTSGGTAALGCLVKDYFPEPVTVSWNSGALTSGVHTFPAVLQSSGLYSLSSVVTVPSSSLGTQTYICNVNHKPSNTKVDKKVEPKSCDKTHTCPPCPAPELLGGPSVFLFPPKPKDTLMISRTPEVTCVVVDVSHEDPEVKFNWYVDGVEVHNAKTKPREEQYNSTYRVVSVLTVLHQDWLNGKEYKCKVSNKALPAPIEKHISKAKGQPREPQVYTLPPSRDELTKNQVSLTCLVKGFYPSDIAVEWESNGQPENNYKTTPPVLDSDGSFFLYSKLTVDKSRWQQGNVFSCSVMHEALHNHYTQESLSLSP
light: B1 light
notes: also called Ho Ab T335_16H

biological target: T1, FcγRIIa R; assay: SPR; He/Con_2aR divided by He/Con_2b (FcγRIIb as reference)
Description: (§1) The heterodimerized antibodies He Abs in which one of the H chains was introduced with an alteration were assayed for their binding activities to each activating FcγR and inhibitory FcγR according to the method described in Example 4. […] The activating FcγRs in FIGS. 26, 27, 28, and 29 are FcγRIa, FcγRIIa (R), FcγRIIa (H), and FcγRIIIa, respectively.
(§2) Analysis of interaction between objective antibody and the FcγR was carried out using Biacore T100 (GE Healthcare). HBS-EP+ (GE Healthcare) was used as the running buffer, and the measurement temperature was set to 25° C. Chips produced by immobilizing the antigen peptide by the amine coupling method to a Series S Sencor Chip CM5 (GE Healthcare), or alternatively, chips produced by allowing preliminarily biotinylated antigen peptides to interact with and immobilize onto a Series S Sensor Chip SA (certified) (GE Healthcare) were used. Antibodies of interest were captured onto an antigen peptide-immobilized chip, and allowed to interact to each FcγR diluted with running buffer. To regenerate and repeatedly use the chip, the antibodies captured on the chip were washed off by reacting 10 mM glycine-HCl, pH 1.5.

Going from B1 to B2, the “IIaR/IIb (He_2aR/2b)” value rises from 1.3 ratio to 1.32 ratio.

First: B3
Second: B4
The “IIaR/IIb (He_2aR/2b)” value of the first is lower: 1.33 ratio for the first, 2.26 ratio for the second.

With B5 the “IIaR/IIb (He_2aR/2b)” value was 1.39 ratio.

biological target: T3, FcγRIIIa extracellular domain with C-terminal His tag (human, UniProt P08637 17-208); assay: SPR relative binding; GpH7-B3/GpL16-k0 = 100
T3 construct: extracellular domain; also called FcgRIIIa; 3a; not shown: His tag at the C terminus
Description: as §2
The FcγR-binding activity of each antibody was assessed primarily using as an indicator the FcγR-binding activity and dissociation constant for FcγR.

T3 sequence (P08637 17-208): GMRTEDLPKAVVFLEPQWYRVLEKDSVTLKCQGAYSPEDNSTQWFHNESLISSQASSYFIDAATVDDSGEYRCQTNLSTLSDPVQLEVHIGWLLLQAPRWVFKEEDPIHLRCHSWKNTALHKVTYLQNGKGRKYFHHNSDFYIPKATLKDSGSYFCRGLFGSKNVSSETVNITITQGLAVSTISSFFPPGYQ

Compared with B6, B7 is lower in Ho/Con_3a: 99 % of control for the first, 97.7 % of control for the second.

Compared with B8, B9 is higher in Ho/Con_3a: 102 % of control for the first, 107 % of control for the second.

Going from B10 to B11, the Ho/Con_3a falls from 64.7 % of control to 52.8 % of control.

First: B12
Second: B13
The Ho/Con_3a of the first is lower: 58.3 % of control for the first, 91.8 % of control for the second.

Compared with B14, B15 is higher in Ho/Con_3a: 87.8 % of control for the first, 97.6 % of control for the second.

Going from B16 to B17, the Ho/Con_3a rises from 64.7 % of control to 102 % of control.

Going from B18 to B19, the Ho/Con_3a rises from 90.5 % of control to 91.5 % of control.

In the case of B20, the Ho/Con_3a is reported as 99.5 % of control.

biological target: T2, FcγRIIb; assay: SPR (Biacore), antibody captured, FcγR as analyte; relative binding
Description: as §1, §2

Compared with B1, B2 is lower in “He/Con_2b (IIb binding)” value: 50.6 % of GpH7-A5/GpH7-B3/GpL16-k0 (=100) for the first, 46.7 % of GpH7-A5/GpH7-B3/GpL16-k0 (=100) for the second.

First: B3
Second: B4
The “He/Con_2b (IIb binding)” value of the first is higher: 42.9 % of GpH7-A5/GpH7-B3/GpL16-k0 (=100) for the first, 14.9 % of GpH7-A5/GpH7-B3/GpL16-k0 (=100) for the second.

In the case of B5, the “He/Con_2b (IIb binding)” value is reported as 25.2 % of GpH7-A5/GpH7-B3/GpL16-k0 (=100).

biological target: T1, FcγRIIa R; assay: as above
Description: as §1, §2

First: B1
Second: B2
The “He/Con_2aR (IIaR binding)” value of the first is higher: 66 % of GpH7-A5/GpH7-B3/GpL16-k0 (=100) for the first, 61.7 % of GpH7-A5/GpH7-B3/GpL16-k0 (=100) for the second.

First: B3
Second: B4
The “He/Con_2aR (IIaR binding)” value of the first is higher: 57.2 % of GpH7-A5/GpH7-B3/GpL16-k0 (=100) for the first, 33.7 % of GpH7-A5/GpH7-B3/GpL16-k0 (=100) for the second.

B5 was tested, and the “He/Con_2aR (IIaR binding)” value was 35 % of GpH7-A5/GpH7-B3/GpL16-k0 (=100).
